Measured values reported in the supplement of paper PMC5998384.

Experiments:
HeLa Kyoto [1] = test: solubility change mitosis vs G1/S (difference of NP-40 vs SDS log2 ratios) (log2 ratio difference); higher = more soluble in mitosis
HeLa Kyoto [2] = test: solubility in G1/S (NP-40 vs SDS abundance) (log2 ratio); higher = more soluble; details: cell cycle stage: G1/S
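For solubility change mitosis vs G1/S (difference of NP-40 vs SDS log2 ratios) in this document: synchronized HeLa Kyoto cells (double thymidine block for G1/S, nocodazole release for mitosis), protein amounts in NP-40 versus SDS lysates quantified by mass spectrometry, three biological replicates.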
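For solubility in G1/S (NP-40 vs SDS abundance) in this document: HeLa Kyoto cells arrested at G1/S by double thymidine block, proteins quantified by TMT10plex mass spectrometry in mild NP-40 versus SDS extracts, three biological replicates.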

Sequence | solubility change mitosis (log2) (HeLa Kyoto [1]) | solubility in G1/S (log2) (HeLa Kyoto [2])
MQVSSLNEVKIYSLSCGKSLPEWLSDRKKRALQKKDVDVRRRIELIQDFEMPTVCTTIKVSKDGQYILATGTYKPRVRCYDTYQLSLKFERCLDSEVVTFEILSDDYSKIVFLHNDRYIEFHSQSGFYYKTRIPKFGRDFSYHYPSCDLYFVGASSEVYRLNLEQGRYLNPLQTDAAENNVCDINSVHGLFATGTIEGRVECWDPRTRNRVGLLDCALNSVTADSEINSLPTISALKFNGALTMAVGTTTGQVLLYDLRSDKPLLVKDHQYGLPIKSVHFQDSLDLILSADSRIVKMWNKNSGKIFTSLEPEHDLNDVCLYPNSGMLLTANETPKMGIYYIPVLGPAPRWCSFLDNLTEELEENPESTVYDDYKFVTKKDLENLGLTHLIGSPFLRAYMHGFFMDIRLYHKVKLMVNPFAYEEYRKDKIRQKIEETRAQRVQLKKLPKVNKELALKLIEEEEEKQKSTWKKKVKSLPNILTDDRFKVMFENPDFQVDEESEEFRLLNPLVSKISEKRKKKLRLLEQQELREKEEEEEPEGKPSDAESSESSDDEKAWVEEVRKQRRLLQQEEKVKRQERLKEDQQTVLKPQFYEIKAGEEFRSFKDSATKQKLMNKTLEDRLKIEAKNGTLSVSDTTVGSKQLTFTLKRSEQQKKQQEAEKLHRQERKRLRRSAGHLKSRHKRGRSFH [NOL10] | 0.53 | -1.88
MMAQSNMFTVADVLSQDELRKKLYQTFKDRGILDTLKTQLRNQLIHELMHPVLSGELQPRSISVEGSSLLIGASNSLVADHLQRCGYEYSLSVFFPESGLAKEKVFTMQDLLQLIKINPTSSLYKSLVSGSDKENQKGFLMHFLKELAEYHQAKESCNMETQTSSTFNRDSLAEKLQLIDDQFADAYPQRIKFESLEIKLNEYKREIEEQLRAEMCQKLKFFKDTEIAKIKMEAKKKYEKELTMFQNDFEKACQAKSEALVLREKSTLERIHKHQEIETKEIYAQRQLLLKDMDLLRGREAELKQRVEAFELNQKLQEEKHKSITEALRRQEQNIKSFEETYDRKLKNELLKYQLELKDDYIIRTNRLIEDERKNKEKAVHLQEELIAINSKKEELNQSVNRVKELELELESVKAQSLAITKQNHMLNEKVKEMSDYSLLKEEKLELLAQNKLLKQQLEESRNENLRLLNRLAQPAPELAVFQKELRKAEKAIVVEHEEFESCRQALHKQLQDEIEHSAQLKAQILGYKASVKSLTTQVADLKLQLKQTQTALENEVYCNPKQSVIDRSVNGLINGNVVPCNGEISGDFLNNPFKQENVLARMVASRITNYPTAWVEGSSPDSDLEFVANTKARVKELQQEAERLEKAFRSYHRRVIKNSAKSPLAAKSPPSLHLLEAFKNITSSSPERHIFGEDRVVSEQPQVGTLEERNDVVEALTGSAASRLRGGTSSRRLSSTPLPKAKRSLESEMYLEGLGRSHIASPSPCPDRMPLPSPTESRHSLSIPPVSSPPEQKVGLYRRQTELQDKSEFSDVDKLAFKDNEEFESSFESAGNMPRQLEMGGLSPAGDMSHVDAAAAAVPLSYQHPSVDQKQIEEQKEEEKIREQQVKERRQREERRQSNLQEVLERERRELEKLYQERKMIEESLKIKIKKELEMENELEMSNQEIKDKSAHSENPLEKYMKIIQQEQDQESADKSSKKMVQEGSLVDTLQSSDKVESLTGFSHEELDDSW [OFD1] | 0.252 | -0.146
METSSMLSSLNDECKSDNYIEPHYKEWYRVAIDILIEHGLEAYQEFLVQERVSDFLAEEEINYILKNVQKVAQSTAHGTDDSCDDTLSSGTYWPVESDVEAPNLDLGWPYVMPGLLGGTHIDLLFHPPRAHLLTIKETIRKMIKEARKVIALVMDIFTDVDIFKEIVEASTRGVSVYILLDESNFNHFLNMTEKQGCSVQRLRNIRVRTVKGQDYLSKTGAKFHGKMEQKFLLVDCQKVMYGSYSYMWSFEKAHLSMVQIITGQLVESFDEEFRTLYARSCVPSSFAQEESARVKHGKALWENGTYQHSVSSLASVSSQRNLFGRQDKIHKLDSSYFKNRGIYTLNEHDKYNIRSHGYKPHFVPNFNGPNAIRQFQPNQINENWKRHSYAGEQPETVPYLLLNRALNRTNNPPGNWKKPSDSLSVASSSREGYVSHHNTPAQSFANRLAQRKTTNLADRNSNVRRSFNGTDNHIRFLQQRMPTLEHTTKSFLRNWRIESYLNDHSEATPDSNGSALGDRFEGYDNPENLKANALYTHSRLRSSLVFKPTLPEQKEVNSCTTGSSNSTIIGSQGSETPKEVPDTPTNVQHLTDKPLPESIPKLPLQSEAPKMHTLQVPENHSVALNQTTNGHTESNNYIYKTLGVNKQTENLKNQQTENLLKRRSFPLFDNSKANLDPGNSKHYVYSTLTRNRVRQPEKPKEDLLKSSKSMHNVTHNLEEDEEEVTKRNSPSGTTTKSVSIAALLDVNKEESNKELASKKEVKGSPSFLKKGSQKLRSLLSLTPDKKENLSKNKAPAFYRLCSSSDTLVSEGEENQKPKKSDTKVDSSPRRKHSSSSNSQGSIHKSKEDVTVSPSQEINAPPDENKRTPSPGPVESKFLERAGDASAPRFNTEQIQYRDSREINAVVTPERRPTSSPRPTSSELLRSHSTDRRVYSRFEPFCKIESSIQPTSNMPNTSINRPEIKSATMGNSYGRSSPLLNYNTGVYRSYQPNENKFRGFMQKFGNFIHKNK [FAM83B] | 0.383 | -1.47
MQAEGRGTGGSTGDADGPGGPGIPDGPGGNAGGPGEAGATGGRGPRGAGAARASGPRGGAPRGPHGGAASAQDGRCPCGARRPDSRLLELHITMPFSSPMEAELVRRILSRDAAPLPRPGAVLKDFTVSGNLLFMSVRDQDREGAGRMRVVGWGLGSASPEGQKARDLRTPKHKVSEQRPGTPGPPPPEGAQGDGCRGVAFNVMFSAPHI [CTAG2] | -0.32 | 1
MDEADRRLLRRCRLRLVEELQVDQLWDALLSRELFRPHMIEDIQRAGSGSRRDQARQLIIDLETRGSQALPLFISCLEDTGQDMLASFLRTNRQAAKLSKPTLENLTPVVLRPEIRKPEVLRPETPRPVDIGSGGFGDVGALESLRGNADLAYILSMEPCGHCLIINNVNFCRESGLRTRTGSNIDCEKLRRRFSSLHFMVEVKGDLTAKKMVLALLELAQQDHGALDCCVVVILSHGCQASHLQFPGAVYGTDGCPVSVEKIVNIFNGTSCPSLGGKPKLFFIQACGGEQKDHGFEVASTSPEDESPGSNPEPDATPFQEGLRTFDQLDAISSLPTPSDIFVSYSTFPGFVSWRDPKSGSWYVETLDDIFEQWAHSEDLQSLLLRVANAVSVKGIYKQMPGCFNFLRKKLFFKTS [CASP9] | -0.0656 | 0.32
